According to patent US20210393685A1 (TRUSTEES OF COLUMBIA UNIVERSITY IN THE CITY OF NEW YORK, published 2021):

B1: anti-CD33-ULBP1 chimera 2 (CD33-ULBP1-2, with proline) (other)
chain: EIVLTQSPGSLAVSPGERVTMSCKSSQSVFFSSSQKNYLAWYQQIPGQSPRLLIYWASTRESGVPDRFTGSGSGTDFTLTISSVQPEDLAIYYCHQYLSSRTFGQGTKLEIKRGSTSGSGKPGSGEGSTKGQVQLQQPGAEVVKPGASVKMSCKASGYTFTSYYIHWIKQTPGQGLEWVGVIYPGNDDISYNQKFQGKATLTADKSSTTAYMQLSSLTSEDSAVYYCAREVRLRYFDVWGQGTTVTVSSSSSAGGGGSGGGGSGGGGSPWVDTHCLCYDFIITPKSRPEPQWCEVQGLVDERPFLHYDCVNHKAKAFASLGKKVNVTKTWEEQTETLRDVVDFLKGQLLDIQVENLIPIEPLTLQARMSCEHEAHGHGRGSWQFLFNGQKFLLFDSNNRKWTALHPGAKKMTEKWEKNRDVTMFFQKISLGDCKMWLEEFLMYWEQMLDPTKPPSLAPGEQKLISEEDLHHHHHH
notes: also called αCD33-ULBP1 chimera 2
B2: anti-CD33-ULBP1 chimera 1 (CD33-ULBP1-1) (other)
chain: EIVLTQSPGSLAVSPGERVTMSCKSSQSVFFSSSQKNYLAWYQQIPGQSPRLLIYWASTRESGVPDRFTGSGSGTDFTLTISSVQPEDLAIYYCHQYLSSRTFGQGTKLEIKRGSTSGSGKPGSGEGSTKGQVQLQQPGAEVVKPGASVKMSCKASGYTFTSYYIHWIKQTPGQGLEWVGVIYPGNDDISYNQKFQGKATLTADKSSTTAYMQLSSLTSEDSAVYYCAREVRLRYFDVWGQGTTVTVSSSSSAGGGGSGGGGSGGGGSWVDTHCLCYDFIITPKSRPEPQWCEVQGLVDERPFLHYDCVNHKAKAFASLGKKVNVTKTWEEQTETLRDVVDFLKGQLLDIQVENLIPIEPLTLQARMSCEHEAHGHGRGSWQFLFNGQKFLLFDSNNRKWTALHPGAKKMTEKWEKNRDVTMFFQKISLGDCKMWLEEFLMYWEQMLDPTKPPSLAPGEQKLISEEDLHHHHHH
notes: also called αCD33-ULBP1 chimera 1

Target: T1, CD33 on cord blood CD34+ cells (human, UniProt P20138 18-364)
T1 construct: whole, on cells; also called CD33 antigen
Experiment: flow cytometry on CD33-expressing cord blood CD34+ cells, detected with FITC anti-Myc antibody
Procedure: The binding of the anti-CD33-ULBP1 chimera with CD33 antigen-expressing cord blood CD34+ cells or NKG2D-expressing primary NK cells was tested using flow cytometry. Briefly, primary NK cells were purified from peripheral blood of donors. CD34+ cells were purified from cord blood of donors. Purified cells were incubated with the elute from the mock, chimera 1 or chimera 2 proteins purified from the cell supernatant. The cells were also incubated with FITC-conjugated anti-Myc antibody and analyzed using a flow cytometer.

T1 sequence (P20138 18-364): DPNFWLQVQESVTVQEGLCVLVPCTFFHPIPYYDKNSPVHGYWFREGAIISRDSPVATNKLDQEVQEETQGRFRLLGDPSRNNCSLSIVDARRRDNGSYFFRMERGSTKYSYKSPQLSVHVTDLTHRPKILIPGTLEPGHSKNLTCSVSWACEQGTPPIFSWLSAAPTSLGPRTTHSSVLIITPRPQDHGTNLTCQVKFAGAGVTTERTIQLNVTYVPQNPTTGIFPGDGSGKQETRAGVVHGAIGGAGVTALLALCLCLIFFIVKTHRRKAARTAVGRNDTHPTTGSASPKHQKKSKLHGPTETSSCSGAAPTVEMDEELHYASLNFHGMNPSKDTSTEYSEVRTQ

Binder | binding result
B1 | binds
B2 | binds
